Values belong to the substance of their own block, whether it stands above or below them.
Legend:
gors2_rat Gorasp2 [1] = molecular target: gors2_rat Gorasp2 (UniProt Q9R064)
gors2_rat Gorasp2 [2] = molecular target: gors2_rat Gorasp2 (UniProt Q9R064); remark: listed apart in the source
gors2_rat Gorasp2 [3] = molecular target: gors2_rat Gorasp2 (UniProt Q9R064); remark: listed apart in the source
gors2_rat Gorasp2 [4] = molecular target: gors2_rat Gorasp2 (UniProt Q9R064); remark: listed apart in the source
mmp14_human MMP14 = mmp14_human MMP14 (UniProt P50281)
gors2_rat Gorasp2 [5] = molecular target: gors2_rat Gorasp2 (UniProt Q9R064); remark: listed apart in the source
gors2_rat Gorasp2 [6] = molecular target: gors2_rat Gorasp2 (UniProt Q9R064); remark: listed apart in the source

Substance: Matrix metalloproteinase-14 (Homo sapiens) (from UniProt P50281) R569A
effect of a mutation on the interaction (gors2_rat Gorasp2 [1]): decreasing interaction

Substance: Matrix metalloproteinase-14 (Homo sapiens) (from UniProt P50281) H565A
effect of a mutation on the interaction (gors2_rat Gorasp2 [2]): decreasing interaction

Substance: Matrix metalloproteinase-14 (Homo sapiens) (from UniProt P50281) P568A
effect of a mutation on the interaction (gors2_rat Gorasp2 [1]): decreasing interaction

Substance: Matrix metalloproteinase-14 (Homo sapiens) (from UniProt P50281) G566A
effect of a mutation on the interaction (gors2_rat Gorasp2 [2]): decreasing interaction

Substance: Golgi reassembly-stacking protein 2 (Rattus norvegicus (Rat)) (from UniProt Q9R064) G2A
effect of a mutation on the interaction (mmp14_human MMP14): disrupting interaction

Substance: Matrix metalloproteinase-14 (Homo sapiens) (from UniProt P50281) L579A
effect of a mutation on the interaction (gors2_rat Gorasp2 [3]): decreasing interaction

Substance: Matrix metalloproteinase-15 (Homo sapiens), P51511 L658A
effect of a mutation on the interaction (gors2_rat Gorasp2 [5]): decreasing interaction

Substance: Matrix metalloproteinase-14 (Homo sapiens) (from UniProt P50281) L571A
effect of a mutation on the interaction (gors2_rat Gorasp2 [6]): disrupting interaction

Continued, values first:

effect of a mutation on the interaction (gors2_rat Gorasp2 [3]): decreasing interaction
Substance: Matrix metalloproteinase-14 (Homo sapiens) (from UniProt P50281) L578A

effect of a mutation on the interaction (gors2_rat Gorasp2 [4]): decreasing interaction
Substance: Matrix metalloproteinase-14 (Homo sapiens) (from UniProt P50281) Q575A

effect of a mutation on the interaction (gors2_rat Gorasp2 [5]): decreasing interaction
Substance: Matrix metalloproteinase-15 (Homo sapiens), P51511 Y660A

effect of a mutation on the interaction (gors2_rat Gorasp2 [1]): decreasing interaction
Substance: Matrix metalloproteinase-14 (Homo sapiens) (from UniProt P50281) R570A

effect of a mutation on the interaction (gors2_rat Gorasp2 [2]): decreasing interaction
Substance: Matrix metalloproteinase-14 (Homo sapiens) (from UniProt P50281) T567A

effect of a mutation on the interaction (gors2_rat Gorasp2 [4]): decreasing interaction
Substance: Matrix metalloproteinase-14 (Homo sapiens) (from UniProt P50281) C574A

effect of a mutation on the interaction (gors2_rat Gorasp2 [5]): decreasing interaction
Substance: Matrix metalloproteinase-15 (Homo sapiens), P51511 L659A

effect of a mutation on the interaction (gors2_rat Gorasp2 [6]): disrupting interaction
Substance: Matrix metalloproteinase-14 (Homo sapiens) (from UniProt P50281) L572A

effect of a mutation on the interaction (gors2_rat Gorasp2 [3]): decreasing interaction
Substance: Matrix metalloproteinase-14 (Homo sapiens) (from UniProt P50281) S577A

effect of a mutation on the interaction (gors2_rat Gorasp2 [4]): decreasing interaction
Substance: Matrix metalloproteinase-14 (Homo sapiens) (from UniProt P50281) R576A

effect of a mutation on the interaction (gors2_rat Gorasp2 [6]): disrupting interaction
Substance: Matrix metalloproteinase-14 (Homo sapiens) (from UniProt P50281) Y573A
